This data set concerns the molecule itself. Nature of the data set: cryo-EM structure; 150 nM biotinylated dynein^E2488Q, 650 nM Lis1, 1.2 mM ATP, 1.2 mM Na3VO4, on streptavidin affinity grids; 4.1 Å map (C2), 3.6 Å after symmetry expansion.

This note sets out measurements from publication PMC10497415, “Lis1 relieves cytoplasmic dynein-1 autoinhibition by acting as a molecular wedge” (Nature Structural & Molecular Biology, 2023).

B1: S. cerevisiae Lis1 (Pac1) (natural protein)
chain: MTNWQQQLPLTDTQKNELDKSVLRYLNWNYKQTVRHEHAQDYESVRHAIVTLSGFLLQESVDRQEFISNNDTSNESMVDIDELLLPKKWNSIVRLQKKIIELEQNTETLVSQIKDLNTQVSELAQFKPTTSNGTSAHNVLKWIPRNLPSCLINVESSVTSVKLHPNLPIVFVATDHGKLYAFDLFNYTIPLASLQSHTKAITSMDVLFTNYTNSSKKNYLVIVTASKDLQIHVFKWVSEECKFQQIRSLLGHEHIVSAVKIWQKNNDVHIASCSRDQTVKIWDFHNGWSLKTFQPHSQWVRSIDVLGDYIISGSHDTTLRLTHWPSGNGLSVGTGHEFPIEKVKFIHFIEDSPEIRFRTPSTDRYKNWGMQYCVSASRDRTIKIWEIPLPTLMAHRAPIPNPTDSNFRCVLTLKGHLSWVRDISIRGQYLFSCADDKSVRCWDLNTGQCLHVWEKLHTGFVNCLDLDVDFDSNVTPRQMMVTGGLDCKSNVFMR
notes: Lis1 (Pac1), S. cerevisiae; a dimer; only the β-propellers are spoken of in the structure; also called yeast Lis1; source: S. cerevisiae, purified (Ni-NTA, IgG Sepharose, TEV cleavage)
For the protein B1, the binding result is recorded as “binds”.
